This note sets out measurements from paper PMC9654539, “Alkaline Stress Causes Changes in Polyamine Biosynthesis in Thermus thermophilus” (International Journal of Molecular Sciences, 2022).

Substrate in this data set: N=C(N)NCCCCN
As to the kind of experiment: purified protein. The class given is biochemical, Thermus thermophilus. The conditions noted are these: pH 10.0, 75 °C, 50 mM Tris-HCl, 10 μM MnCl2, 0.005–1 mM agmatine.

B1: TtSpeB (aminopropylagmatine ureohydrolase) (Thermus thermophilus HB8) (protein)
chain: MRLVFGEKDTPYEEARVVVLPVPYDLSLSFLPGARRGPEAILLASRELEPFLLELGAAPEEVGIHAAEPVPWVAGMAEESHRLIREEALRHLRAGKWVVALGGDHSVTHPLVQAHREALGDFSLLHVDAHADLYPEWQGSVYSHASPFYRLLTEGFPLVQVGIRAMDRDSLRLARKKGVALFPAHRIHREGLPLDEILRALGKRVYISLDFDALDPSLMPSVGTPLPGGLSYRQVVDLLEAVFREKEVVGMDFVELSPNGQFHAEMTAAQLVYHAIGLKGLQAGWLSREVDHI
notes: gene amplified from HB8 genomic DNA, pET21b (pET21speBHis, NdeI/HindIII), His-tagged, tag not reported cut, E. coli BL21(DE3), heat step 70 °C, Ni-NTA
A word on the Km: it is the substrate concentration at which the rate is half of its maximum. Take B1: the Michaelis constant (Km) came out at 171 µM.
